Reference: patent publication US20250270296A1 (ACADEMIA SINICA, published 2025)

Legend:
[1] = target: SARS-COV-2 RBD-His protein (SARS-CoV-2, UniProt P0DTC2 319-541)
[2] = target: SARS-CoV-2 S protein, full length, wild type (on pseudovirus, authentic virus hCoV-19/Taiwan/4/2020 (SARS-CoV-2, UniProt P0DTC2 14-1273)); experiment: cell-based or functional assay

Row | Binder | pseudovirus neutralization assay IC50 [2] [ng/mL] | PRNT50 [2] [ng/mL] | other results
1 | RBD-chAb-45 (antibody, V domains shown) VH: EVQLQQSGPELVKPGASVKISCKTSGYTFTEYTIYWVKQSLGKSLEWIGGNNPNNDDTTYKQFFKGKATLTVDKSSSTAYMELRSLTSEDSAVYYCARDGYPYYYALDFWGQGTSVTVSS VL: DILMTQSQKFMSTSVGDRVSVTCKSSQNVGTNVAWYQQKPGQSPKALIYSASYRYSGVPDHFTGSGSGTDFTLTISNVQSADLAEYFCQQYNNYPWTFGGGTKLDIK | 2.3 |  | Kd [1]: 282 pM; koff [1]: 0.000282 s⁻¹; kon [1]: 997000 M⁻¹ s⁻¹
2 | RBD-chAb-51 (antibody, V domains shown) VH: EVQLQQSGPELVKPGASAKISCKTSGYTFTEYTMYWVKQSHGKSLEWIGGINPNNGDTTYNQTFKGKATLTVDKSSSTAYMELRSLTSEDSAVYYCARDGYPFYYALDYWGQGISVTVSS VL: DIVMTQSQKFMSTSVGDRVSVTCKARQIVGTNVAWYQQKPGQSPKALIYSASYRYSGVPDRFTGSGSGTDFTLTITNVHSEDLAEFFCHQYNSYPWTFGGGTKLDIK | 0.98 |  | 
3 | RBD-chAb-1 (antibody, V domains shown) VH: EVQLQQSGPQLVRPGASMKISCKASGYSFTTYWMHWVKQRPGQGLQWIGMIDPSDSETRLNQKFKDKATLTVDKSSSTAYMQLSSPTSEDSAVYYCARDFDYDRTMDYWGQGTSVTVSS VL: DIVMSQSPSSLAVSVGEKVTMSCKSSQSLLFSSSQKNYLAWYQQKAGQSPKLLIFWASTRESGVPDRFTGSGSGTDFTLTISSVKAEDLAIYYCKQYYKYPLTFGAGTKLDIK |  | < 36 | 
4 | RBD-chAb-15 (antibody, V domains shown) VH: EVQLEESGPGLVQPSQSLSITCTVSDFSLTTYGVHWVRQSPGKGLEWLGVIWSGGSTDYNAAFISRLSISKDNSKSQVFFKMNSLQTNDTAIYYCARMGDGYYVGAMDYWGQGTSVTVSS VL: DIQLTQSPAILSVSPGERVSFSCRASQSIGTSIHWYQQRTNGSPRHLIKYASESISGIPSRFSGSGSGTDFTLTINGVESEDIADYYCQQGHNWPLTFGAGTKLDIK |  | < 36 | 
5 | RBD-chAb-28 (antibody, V domains shown) VH: QVQLQQPGTELVMPGASVKMSCKASGYTFTDYYLHWMKQRPGQGLEWIGAIDSSDSYTDYNQNFKGKATLTVDESSSTAYMHLSSLTSEDSAVYYCARGKDAYDRRPWFAYWGQGTLVTVSA VL: DIQMTQTTSSLSASLGDRVTISCSASQGIRYYLNWYQQKPDGTVKLLIYYTSNLHSGVPSRFSGSGSGTDYSLTISNLEPEDIATYYCQQYNKLPYTFGGGTKLDIK | 8.75 |  | 
